According to US20250382359A1 (BYOMASS, published 2025):

T1: GDF15 (ligand used in the GFRAL/RET cell assays) (UniProt Q99988 197-308, limits assumed)
T1 sequence (looked up): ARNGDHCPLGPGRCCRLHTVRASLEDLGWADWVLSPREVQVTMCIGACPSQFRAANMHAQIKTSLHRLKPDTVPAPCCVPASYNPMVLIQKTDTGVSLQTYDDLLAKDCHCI

T2: GDNF (UniProt P39905 78-211)
T2 sequence (looked up): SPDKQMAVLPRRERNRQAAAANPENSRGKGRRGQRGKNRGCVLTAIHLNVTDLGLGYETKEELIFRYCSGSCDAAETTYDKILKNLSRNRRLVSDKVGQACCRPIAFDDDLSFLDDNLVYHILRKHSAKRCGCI

T3: Human Activin B (human, UniProt P09529 293-407)
T3 sequence (looked up): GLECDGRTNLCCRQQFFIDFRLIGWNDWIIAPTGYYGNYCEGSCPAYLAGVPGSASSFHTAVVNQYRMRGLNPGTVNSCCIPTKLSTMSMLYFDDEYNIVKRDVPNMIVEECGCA

T4: Human GDF15 Fc (human, UniProt Q99988 195-308, limits assumed, biotinylated (EZ-Link Sulfo-NHS-Biotinylation Kit) in the SPR assay)
T4 construct: also called human GDF15-Fc fusion; biotinylated Human GDF15 Fc; not shown: Fc part
T4 sequence: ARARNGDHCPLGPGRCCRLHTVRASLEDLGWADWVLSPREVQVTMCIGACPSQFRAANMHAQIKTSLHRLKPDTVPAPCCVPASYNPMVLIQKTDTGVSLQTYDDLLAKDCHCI

T5: Human Activin A Fc (human, UniProt P08476 311-426)
T5 construct: not shown: Fc part
T5 sequence (looked up): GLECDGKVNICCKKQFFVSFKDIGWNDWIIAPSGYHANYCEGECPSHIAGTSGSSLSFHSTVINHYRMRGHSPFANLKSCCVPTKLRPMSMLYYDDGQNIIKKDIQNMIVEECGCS

T6: Human BMP9 (human, UniProt Q9UK05 320-429)
T6 sequence (looked up): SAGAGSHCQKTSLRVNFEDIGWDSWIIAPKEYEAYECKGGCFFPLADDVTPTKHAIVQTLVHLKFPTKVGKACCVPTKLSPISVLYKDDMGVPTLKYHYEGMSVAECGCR

T7: Human BMP10 (human, UniProt O95393 317-424)
T7 sequence (looked up): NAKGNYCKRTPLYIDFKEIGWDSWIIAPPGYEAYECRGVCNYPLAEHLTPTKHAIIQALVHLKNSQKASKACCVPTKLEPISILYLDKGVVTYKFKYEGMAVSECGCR

T8: GDF10 (UniProt P55107 369-478)
T8 sequence (looked up): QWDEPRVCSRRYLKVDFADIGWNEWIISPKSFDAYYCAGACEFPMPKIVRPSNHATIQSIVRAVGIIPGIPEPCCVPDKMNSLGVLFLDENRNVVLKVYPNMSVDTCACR


Columns and labels:
[1] = target: T1, GDF15 (ligand used in the GFRAL/RET …); experiment: cell-based or functional assay
GDNF = target: T2, GDNF; experiment: BLI Octet; IgG on sensor
GDF8 = GDF8 (UniProt O14793 267-375); experiment: BLI Octet; IgG on sensor
GDF11 = target: T9, GDF11 (UniProt O95390 299-407); experiment: BLI Octet; IgG on sensor
T9 construct: Also used as ligand in the Activin 2B receptor/SMAD reporter assay
T9 sequence (O95390 299-407 limits assumed): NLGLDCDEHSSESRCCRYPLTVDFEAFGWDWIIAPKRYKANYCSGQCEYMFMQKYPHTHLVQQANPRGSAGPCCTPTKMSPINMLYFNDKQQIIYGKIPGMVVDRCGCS

Human Activin B [2] = target: T3, Human Activin B; experiment: BLI Octet; IgG on sensor
Human GDF15 Fc = target: T4, Human GDF15 Fc; experiment: BLI Octet; IgG on sensor, 100 nM antigen (avid)
Method: Briefly, ForteBio affinity measurements were performed by loading IgGs on-line onto AHC sensors. Sensors were equilibrated off-line in assay buffer for 30 min and then monitored on-line for 60 seconds for baseline establishment. Sensors with loaded IgGs were exposed to 100 nM antigen for 3 minutes, and afterwards were transferred to assay buffer for 3 min for off-rate measurement. All kinetics were analyzed using the 1:1 binding model.

Human Activin A Fc [3] = target: T5, Human Activin A Fc; experiment: BLI Octet; IgG on sensor, 100 nM antigen (avid)
Human BMP9 = target: T6, Human BMP9; experiment: BLI Octet; IgG on sensor, 100 nM antigen (avid)
Human BMP10 [4] = target: T7, Human BMP10; experiment: BLI Octet; IgG on sensor, 100 nM antigen (avid)
Human BMP10 [5] = target: T7, Human BMP10; experiment: BLI Octet; IgG on sensor
Human Activin B [6] = target: T3, Human Activin B; experiment: BLI Octet; IgG on sensor, 100 nM antigen (avid)
Human Activin A Fc [7] = target: T5, Human Activin A Fc; experiment: BLI Octet; IgG on sensor
GDF10 = target: T8, GDF10; experiment: BLI Octet; IgG on sensor, 100 nM antigen (avid)

Row | Binder | GDF15-GFRAL RET pERK IC50 (pM) [1] | GDF15-GFRAL-RET Luciferase IC50 (pM) [1] | binding result (GDNF) | binding result (GDF8) | binding result (GDF11) | binding result (Human Activin B [2]) | Kd (Human GDF15 Fc) | Kd (Human Activin A Fc [3]) | binding result (Human BMP9) | binding result (Human BMP10 [4]) | binding result (Human BMP10 [5]) | Kd (Human Activin B [6]) | binding result (Human Activin A Fc [7]) | Kd (GDF10)
1 | GDF15 antibody agent Clone A, IgG (antibody, V domains shown) VH: QVQLQESGPGLVKPSQTLSLTCTVSGGSITSGGSYWSWIRQHPGKGLEWIGAIVYSGSTYYNPSLKSRVTISVDTSKNQFSLKLSSVTAADTAVYYCARGVEYQHFDYWGQGTLVTVSS VL: not shown | 102 pM | 75 pM | no binding (tested: 100 nM) | no binding (tested: 100 nM) | no binding (tested: 100 nM) | no binding (tested: 100 nM) | 0.263 nM | 7.34 nM | binds | binds | – | – | – | –
2 | GDF15 antibody agent Clone C, IgG (antibody, V domains shown) VH: QVQLQESGPGLVKPSQTLSLTCTVSGGSISSGGYYWSWIRQHPGKGLEWIGAIVYSGHTYYNPSLKSRVTISVDTSKNQFSLKLSSVTAADTAVYYCARGVEYQHFSLWGQGTLVTVSS VL: not shown | 145 pM | 39.6 pM | no binding (tested: 100 nM) | no binding (tested: 100 nM) | no binding (tested: 100 nM) | – | 0.254 nM | 6.48 nM | binds | – | no binding (tested: 100 nM) | 132 nM | – | –

Further lines, results first:

Row | GDF15-GFRAL RET pERK IC50 (pM) [1] | GDF15-GFRAL-RET Luciferase IC50 (pM) [1] | binding result (GDNF) | binding result (GDF8) | binding result (GDF11) | binding result (Human Activin B [2]) | Kd (Human GDF15 Fc) | Kd (Human Activin A Fc [3]) | binding result (Human BMP9) | binding result (Human BMP10 [4]) | binding result (Human BMP10 [5]) | Kd (Human Activin B [6]) | binding result (Human Activin A Fc [7]) | Kd (GDF10) | Binder
3 | 50.4 pM | 58.7 pM | no binding (tested: 100 nM) | no binding (tested: 100 nM) | no binding (tested: 100 nM) | no binding (tested: 100 nM) | 0.263 nM | 7.87 nM | binds | – | no binding (tested: 100 nM) | – | – | – | GDF15 antibody agent Clone D, IgG (antibody, V domains shown) VH: QVQLQESGPGLVKPSQTLSLTCTVSGGSINSGGYYWTWIRQHPGKGLEWIGAIYYSGSTVYNPSLKSRVTISVDTSKNQFSLKLSSVTAADTAVYYCARGVEYQHFNEWGQGTLVTVSS VL: not shown
4 | 66.7 pM | 97.1 pM | no binding (tested: 100 nM) | no binding (tested: 100 nM) | no binding (tested: 100 nM) | no binding (tested: 100 nM) | 0.256 nM | – | binds | binds | – | – | no binding (tested: 100 nM) | 36.8 nM | GDF15 antibody agent Clone G, IgG (antibody, V domains shown) VH: QVQLVQSGAEVKKPGSSVKVSCKASGGTFQGYAISWARQAPGQGLEWMGGIIPPYATANYAQKFQGRVTITADESTSTAYMELSSLRSEDTAVYYCARGVGELHLDVWGQGTMVTVSS VL: not shown
